Measurements as given in patent US20130089497A1 (Genentech, published 2013).

How the values were obtained:
[1] = target: T1, gD tagged human FcRH6 on SVT2 cells (human, UniProt Q6DN72 20-434); assay: FACS, SVT2.MSCV.gD.FcRH6 cells, PE secondary antibody
T1 construct: whole, on cells; also called huFcRH6; not shown: gD tag; the construct for this FcRH is not described
T1 sequence (looked up): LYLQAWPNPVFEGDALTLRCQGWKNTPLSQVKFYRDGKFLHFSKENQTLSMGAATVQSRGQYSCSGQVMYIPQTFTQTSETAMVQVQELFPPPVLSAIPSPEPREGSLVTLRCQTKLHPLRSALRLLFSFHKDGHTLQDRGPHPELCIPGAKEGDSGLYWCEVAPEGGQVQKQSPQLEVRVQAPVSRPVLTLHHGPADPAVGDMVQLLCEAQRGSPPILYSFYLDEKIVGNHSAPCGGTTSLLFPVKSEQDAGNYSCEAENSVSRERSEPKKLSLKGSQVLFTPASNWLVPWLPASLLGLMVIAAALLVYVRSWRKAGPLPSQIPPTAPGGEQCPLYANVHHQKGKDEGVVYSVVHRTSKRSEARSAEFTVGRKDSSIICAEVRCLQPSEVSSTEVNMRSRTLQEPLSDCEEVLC

[2] = target: T2, human FcRH5 on stably transfected cells (BJAB.huFcRH5, OPM2.huFcRH5) (human, UniProt Q96RD9 16-977); assay: Scatchard analysis: 0.5 nM 125I-labeled antibody competed with the unlabeled antibody (50 to 0.02 nM) on BJAB.huFcRH5 cells, 4 h at 4 C; St. Error 0.007
T2 construct: also called BJAB-FcRH5; OPM2-FcRH5
T2 chain: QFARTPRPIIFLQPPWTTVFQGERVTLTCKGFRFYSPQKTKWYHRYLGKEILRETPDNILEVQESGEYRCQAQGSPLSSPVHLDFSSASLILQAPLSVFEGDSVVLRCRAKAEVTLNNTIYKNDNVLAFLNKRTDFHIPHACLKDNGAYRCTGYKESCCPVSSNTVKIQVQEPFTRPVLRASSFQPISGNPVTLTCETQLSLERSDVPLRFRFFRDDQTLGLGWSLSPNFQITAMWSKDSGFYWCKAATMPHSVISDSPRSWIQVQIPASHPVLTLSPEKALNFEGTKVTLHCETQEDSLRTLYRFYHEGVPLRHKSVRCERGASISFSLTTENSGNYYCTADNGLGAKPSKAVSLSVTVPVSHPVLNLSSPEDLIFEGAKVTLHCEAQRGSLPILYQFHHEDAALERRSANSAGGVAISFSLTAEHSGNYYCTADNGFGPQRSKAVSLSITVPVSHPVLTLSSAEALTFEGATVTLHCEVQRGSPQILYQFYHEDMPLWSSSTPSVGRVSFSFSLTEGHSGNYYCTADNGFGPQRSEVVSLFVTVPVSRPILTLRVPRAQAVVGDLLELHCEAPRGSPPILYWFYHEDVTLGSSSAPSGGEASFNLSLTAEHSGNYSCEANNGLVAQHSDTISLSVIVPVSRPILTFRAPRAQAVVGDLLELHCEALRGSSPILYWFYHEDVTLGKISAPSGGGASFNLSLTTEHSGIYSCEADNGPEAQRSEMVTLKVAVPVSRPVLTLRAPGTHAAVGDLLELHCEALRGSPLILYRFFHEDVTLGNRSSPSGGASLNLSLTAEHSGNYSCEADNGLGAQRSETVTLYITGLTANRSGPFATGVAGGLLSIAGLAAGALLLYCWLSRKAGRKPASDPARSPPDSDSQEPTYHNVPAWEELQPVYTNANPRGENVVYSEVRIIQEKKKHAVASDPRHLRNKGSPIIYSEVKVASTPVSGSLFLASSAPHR

[3] = target: T3, cynomolgus FcRH5 on stably transfected SVT2 cells (cynomologous monkey); assay: Scatchard analysis: 0.5 nM 125I-labeled antibody competed with the unlabeled antibody (50 to 0.02 nM) on SVT2.cyFcRH5 cells, 4 h at 4 C; St. Error 0.064
T3 construct: also called cyno FcRH5; cynoFcRH5
T3 chain: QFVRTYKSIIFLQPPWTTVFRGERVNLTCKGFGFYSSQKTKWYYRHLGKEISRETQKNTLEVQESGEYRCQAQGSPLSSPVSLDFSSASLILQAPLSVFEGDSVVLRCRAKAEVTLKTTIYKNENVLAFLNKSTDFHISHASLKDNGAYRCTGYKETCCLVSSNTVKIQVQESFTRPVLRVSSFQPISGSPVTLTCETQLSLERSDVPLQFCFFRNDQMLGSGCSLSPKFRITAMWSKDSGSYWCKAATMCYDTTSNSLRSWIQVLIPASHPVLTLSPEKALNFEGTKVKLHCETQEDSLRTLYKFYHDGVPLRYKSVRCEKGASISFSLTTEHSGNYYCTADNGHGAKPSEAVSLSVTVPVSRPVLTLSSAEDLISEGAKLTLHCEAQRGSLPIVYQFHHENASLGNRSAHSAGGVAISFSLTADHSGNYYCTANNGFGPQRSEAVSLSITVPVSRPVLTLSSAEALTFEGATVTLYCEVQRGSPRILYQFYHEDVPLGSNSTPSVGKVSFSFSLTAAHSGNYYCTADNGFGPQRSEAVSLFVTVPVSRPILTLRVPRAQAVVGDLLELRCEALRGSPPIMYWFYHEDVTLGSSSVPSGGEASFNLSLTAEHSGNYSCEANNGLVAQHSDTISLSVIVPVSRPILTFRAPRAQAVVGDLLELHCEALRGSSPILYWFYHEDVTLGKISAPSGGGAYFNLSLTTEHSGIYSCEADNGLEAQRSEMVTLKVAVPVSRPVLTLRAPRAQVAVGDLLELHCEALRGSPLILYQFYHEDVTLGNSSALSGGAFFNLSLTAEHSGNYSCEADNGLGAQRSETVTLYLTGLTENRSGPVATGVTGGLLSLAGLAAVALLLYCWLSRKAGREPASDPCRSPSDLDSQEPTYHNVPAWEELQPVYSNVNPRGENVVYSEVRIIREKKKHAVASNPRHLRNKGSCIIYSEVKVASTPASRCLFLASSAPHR
Description: To further determine binding of the FcRH5 murine antibodies and IgG clones, binding of iodinated IgG variants to OPM2 cells expressing human FcRH5 and SVT2 cells expressing cynomologous FcRH5, Scatchard analysis was performed (Table 9A).
For Scatchard analysis, 0.5 nM I¹²⁵ labeled murine or IgG clone anti-FcRH5 was competed against unlabeled murine or IgG clone anti-FcRH5, respectively, ranging from 50 to 0.02 nM (12 step 1:2 serial dilution) in the presence of a transfected OPM2 line stably expressing human-FcRH5 and a transfected SVT2 line stably expressing cynomologous-FcRH5. After a four hour incubation at 4° C., cells were washed and cell pellet counts were read by a gamma counter (1470 WIZARD Automatic Gamma Counter; Perkin Elmer, Walthem, Mass.). All points were done in triplicate and counted for 10 minutes. The average CPM was used for Kd calculation using the New Ligand (Genentech, South San Francisco, Calif.) program.

B1: murine monoclonal antibody anti-FcRH5-13G9 (antibody, V domains shown)
VH: EVQLVQSGPELKKPGETVKISCKASGYTFTNYGMNWVKQAPGKGLKWMGWVNTYTGEPTYTDDFKGRFAFSVETSASTVFLQINNLKNEDTATYFCARRSIPYYYAMDYWGQGTSLT
VL: DIVMTQSQKIMSTSVGDRVNVTCKASQNVGSNVAWYHQKPGQSPKALIYSASYRYSGVPDRFTGSGSGTDFTLTISNVQSEDLAEYFCQQYKTWTFGGGTKLEIKR
notes: Whole murine IgG from hybridoma; also called 13G9.1.1; mu13G9
With B1 the binding result [1] was “no binding (tested: 1.0 ug per about 10^6 cells (p-1120))”, the Kd [2] was 0.13 nM and the Kd [3] was 0.54 nM.
